Values joined by “and” are separate entries in the source; they are usually repeats but may differ in a detail not shown here. Identical values can stand only once.
Biological target: the molecule itself
Assay: SEC

B1: Recombinant His6-Sec18p (enzyme, S. cerevisiae, UniProt P18759 1-758, looked up)
chain: MFKIPGFGKAAANHTPPDMTNMDTRTRHLKVSNCPNNSYALANVAAVSPNDFPNNIYIIIDNLFVFTTRHSNDIPPGTIGFNGNQRTWGGWSLNQDVQAKAFDLFKYSGKQSYLGSIDIDISFRARGKAVSTVFDQDELAKQFVRCYESQIFSPTQYLIMEFQGHFFDLKIRNVQAIDLGDIEPTSAVATGIETKGILTKQTQINFFKGRDGLVNLKSSNSLRPRSNAVIRPDFKFEDLGVGGLDKEFTKIFRRAFASRIFPPSVIEKLGISHVKGLLLYGPPGTGKTLIARKIGTMLNAKEPKIVNGPEILSKYVGSSEENIRNLFKDAEAEYRAKGEESSLHIIIFDELDSVFKQRGSRGDGTGVGDNVVNQLLAKMDGVDQLNNILVIGMTNRKDLIDSALLRPGRFEVQVEIHLPDEKGRLQIFDIQTKKMRENNMMSDDVNLAELAALTKNFSGAEIEGLVKSASSFAINKTVNIGKGATKLNTKDIAKLKVTREDFLNALNDVTPAFGISEEDLKTCVEGGMMLYSERVNSILKNGARYVRQVRESDKSRLVSLLIHGPAGSGKTALAAEIALKSGFPFIRLISPNELSGMSESAKIAYIDNTFRDAYKSPLNILVIDSLETLVDWVPIGPRFSNNILQMLKVALKRKPPQDRRLLIMTTTSAYSVLQQMDILSCFDNEIAVPNMTNLDELNNVMIESNFLDDAGRVKVINELSRSCPNFNVGIKKTLTNIETARHDEDPVNELVELMTQSA
- stoichiometry N: 6 and 2
